{"source": "patent US20250295802A1", "about": "“HER3 ANTIBODY-DRUG CONJUGATE AND USE THEREOF” (DUALITY BIOLOGICS (SUZHOU) CO., LTD., priority 2022, published 2025)", "key": {"[1]": {"target": "rat HER3 (rat, UniProt Q62799 20-641, limits assumed)", "sequence (Q62799 20-641 limits assumed)": "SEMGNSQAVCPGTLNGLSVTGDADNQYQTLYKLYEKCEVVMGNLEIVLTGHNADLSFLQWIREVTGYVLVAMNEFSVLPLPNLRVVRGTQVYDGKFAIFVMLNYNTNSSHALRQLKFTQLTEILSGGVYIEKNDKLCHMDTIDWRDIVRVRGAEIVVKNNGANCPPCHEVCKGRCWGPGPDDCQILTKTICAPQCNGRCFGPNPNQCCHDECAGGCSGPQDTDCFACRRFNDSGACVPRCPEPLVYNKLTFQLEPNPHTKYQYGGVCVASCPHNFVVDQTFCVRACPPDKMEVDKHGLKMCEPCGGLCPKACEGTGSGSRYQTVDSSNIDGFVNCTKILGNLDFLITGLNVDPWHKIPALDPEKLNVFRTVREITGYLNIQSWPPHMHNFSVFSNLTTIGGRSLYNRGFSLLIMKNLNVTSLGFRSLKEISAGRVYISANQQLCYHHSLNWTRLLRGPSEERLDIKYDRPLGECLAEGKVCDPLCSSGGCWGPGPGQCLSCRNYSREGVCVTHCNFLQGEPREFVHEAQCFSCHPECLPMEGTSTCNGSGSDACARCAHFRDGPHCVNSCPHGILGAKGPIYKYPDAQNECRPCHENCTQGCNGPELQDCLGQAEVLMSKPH", "assay": "ELISA on coated antigen, luminescence readout"}, "[2]": {"target": "mouse HER3 (mouse, UniProt Q61526 20-641, limits assumed)", "sequence (Q61526 20-641 limits assumed)": "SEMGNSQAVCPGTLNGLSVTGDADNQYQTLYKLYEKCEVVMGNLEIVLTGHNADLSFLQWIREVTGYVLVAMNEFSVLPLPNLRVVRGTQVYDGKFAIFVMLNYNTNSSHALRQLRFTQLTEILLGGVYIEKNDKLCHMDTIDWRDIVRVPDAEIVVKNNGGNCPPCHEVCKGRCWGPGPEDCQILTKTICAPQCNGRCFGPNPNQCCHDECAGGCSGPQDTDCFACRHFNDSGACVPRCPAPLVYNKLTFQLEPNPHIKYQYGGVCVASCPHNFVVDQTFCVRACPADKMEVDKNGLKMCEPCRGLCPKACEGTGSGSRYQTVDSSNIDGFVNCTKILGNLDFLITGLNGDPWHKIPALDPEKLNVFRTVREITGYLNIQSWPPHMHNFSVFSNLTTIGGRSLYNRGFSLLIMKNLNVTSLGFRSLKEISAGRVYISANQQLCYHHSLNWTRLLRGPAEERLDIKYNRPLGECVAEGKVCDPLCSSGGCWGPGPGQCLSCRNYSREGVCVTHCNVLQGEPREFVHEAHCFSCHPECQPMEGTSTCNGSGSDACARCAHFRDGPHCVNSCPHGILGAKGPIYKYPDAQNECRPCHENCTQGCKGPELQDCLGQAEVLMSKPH", "assay": "ELISA on coated antigen, luminescence readout"}, "[3]": {"target": "T1, human HER2 expressed on SP2/0 cells (human, UniProt P04626 23-1255)", "T1 construct": "whole, on cells; also called SP2/0-HER2 cells", "assay": "flow cytometry (FACS) on SP2/0 cells overexpressing human HER2, PE anti-mouse secondary antibody", "protocol": "(§1) FACS assay: the cultured cells were digested with 0.25% trypsin-EDTA and then centrifuged at 1500 rpm for 5 min. The cell pellets were regenerated into 5×10⁶ cells/mL using a PBS FACS solution containing 5% FBS and 0.2% ProClin300. 50 μL of the cell suspension was incubated with 100 μL of the primary antibody at a concentration of 1 μg/mL on ice for 1 h. The cells were washed twice with the FACS solution. The pellets were regenerated using 100 μL of a FACS solution containing goat anti-mouse IgG-PE (1:1000 dilution) and incubated on ice in the dark for 1 h. The cells were then washed twice and resuspended in 200 μL of the FACS solution.\n(§2) Murine 3F8 was co-incubated with SP2/0 wild-type cells or cells overexpressing HER3, HER2 or EGFR. The binding strength was measured in a FACS instrument with a PE-anti-mouse secondary antibody."}, "[4]": {"target": "T2, human EGFR expressed on SP2/0 cells (human, UniProt P00533 25-1210)", "T2 construct": "whole, on cells; also called SP2/0-EGFR cells", "assay": "flow cytometry (FACS) on SP2/0 cells overexpressing human EGFR, PE anti-mouse secondary antibody", "protocol": "as §1, §2"}, "[5]": {"target": "T3, human HER2-ex-huFc (human, UniProt P04626 23-652)", "T3 construct": "extracellular domain; 'ex' is read as extracellular domain; also called huHER2; not shown: human Fc (huFc)", "assay": "ELISA on coated antigen, luminescence readout", "protocol": "(§3) ELISA assay: human HER2-ex-huFc, human HER3-huFc, and human EGFR-his were diluted to 2 μg/mL and 50 μL/well in a 96-well plate and incubated at 4° C. overnight. The plate was washed with 0.5×PBST, then incubated with 100 μL of a blocking buffer (PBS+3% BSA) at 37° C. for 2 h, and washed with 0.5×PBST. The 3F8 antibody was diluted with the blocking buffer in a 1:3 serial gradient, added at 50 μL/well, incubated at 37° C. for 40-50 min, and then washed with 0.5×PBST. […] Prior to assay, 50 μL of luminol buffer A+B was added to each well in a 1:1 mix.\n(§4) The binding affinities of murine 3F8 to human HER3, HER2 and EGFR were determined by ELISA."}, "[6]": {"target": "T4, human EGFR-his (human, UniProt P00533 25-645)", "T4 construct": "also called huEGFR; not shown: His tag", "assay": "ELISA on coated antigen, luminescence readout", "protocol": "as §3, §4"}, "[7]": {"target": "T5, human HER3-huFc (human, UniProt P21860 20-643)", "T5 construct": "also called huHER3; not shown: human Fc (huFc)", "assay": "ELISA, antigen coated", "protocol": "as §3\n(§5) EC50 of murine 3F8 binding to human HER3, HER2, and EGFR was analyzed using GraphPad Prism 6.0."}, "[8]": {"target": "T5, human HER3-huFc", "assay": "ELISA"}, "[9]": {"target": "cynomolgus monkey HER3 (cynomolgus monkey, UniProt G7PIG5 20-643)", "sequence (G7PIG5 entry or part of it)": "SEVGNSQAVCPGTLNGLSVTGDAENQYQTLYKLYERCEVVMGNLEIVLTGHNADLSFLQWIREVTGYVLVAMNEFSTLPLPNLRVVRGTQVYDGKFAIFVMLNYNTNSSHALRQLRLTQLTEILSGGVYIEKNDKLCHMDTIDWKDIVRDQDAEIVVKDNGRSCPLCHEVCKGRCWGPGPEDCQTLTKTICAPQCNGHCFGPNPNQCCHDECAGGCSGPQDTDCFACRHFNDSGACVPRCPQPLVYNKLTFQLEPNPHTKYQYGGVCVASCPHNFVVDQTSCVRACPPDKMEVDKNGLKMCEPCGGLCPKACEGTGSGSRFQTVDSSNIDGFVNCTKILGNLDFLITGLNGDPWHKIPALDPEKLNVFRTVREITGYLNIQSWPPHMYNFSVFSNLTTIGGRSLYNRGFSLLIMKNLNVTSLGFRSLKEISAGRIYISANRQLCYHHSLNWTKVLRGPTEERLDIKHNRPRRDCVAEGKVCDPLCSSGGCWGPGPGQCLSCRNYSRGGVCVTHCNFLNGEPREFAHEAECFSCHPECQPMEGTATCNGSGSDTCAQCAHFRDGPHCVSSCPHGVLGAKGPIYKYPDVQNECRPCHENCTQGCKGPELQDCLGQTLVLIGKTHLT", "assay": "ELISA"}, "[10]": {"target": "T6, HER3 (Homo sapiens, UniProt P21860)", "T6 construct": "human Fc (huFc)", "assay": "ELISA binding to human HER3", "protocol": "(§6) ELISA assay: human HER2-ex-huFc, human HER3-huFc, and human EGFR-his were diluted to 2 μg/mL and 50 μL/well in a 96-well plate and incubated at 4° C. overnight. The plate was washed with 0.5×PBST, then incubated with 100 μL of a blocking buffer (PBS+3% BSA) at 37° C. for 2 h, and washed with 0.5×PBST. The 3F8 antibody was diluted with the blocking buffer in a 1:3 serial gradient, added at 50 μL/well, incubated at 37° C. for 40-50 min, and then washed with 0.5×PBST. Goat anti-mouse IgG-HRP (Southern Biotech, 1030-05) was diluted at 1:20000 with the blocking buffer, added at 50 μL/well, incubated in the dark for 30 min, and then washed with 0.5×PBST. Prior to assay, 50 μL of luminol buffer A+B was added to each well in a 1:1 mix.\nas §4, §5\n(§7) The species selectivity of murine 3F8 to human, monkey, rat and mouse HER3 was determined by ELISA.\n(§8) EC50 of murine 3F8 binding to human, monkey, rat and mouse HER3 was analyzed using GraphPad Prism 6.0."}, "[11]": {"system": "cells at different HER3 surface levels", "assay": "Internalization of murine 3F8 by cells at different HER3 surface levels", "assay_type": "cell-based", "protocol": "Murine 3F8 was rapidly taken up by cells at different HER3 surface levels. The cells at different HER3 surface levels were incubated with murine 3F8 on ice (control) or incubated at 37° C. for 1 or 4 h. The internalization fraction was determined by subtracting the 37° C. incubated cell surface signal from the ice incubated control."}, "[12]": {"target": "cynomolgus monkey HER3", "assay": "ELISA binding to cynomolgus monkey HER3", "conditions": "Table 2", "protocol": "as §6, §7, §8"}, "[13]": {"system": "SP2/0 wild-type cells or cells overexpressing HER2 or EGFR", "assay": "FACS binding of murine 3F8 to SP2/0 wild-type, HER2 or EGFR cells", "parameters": "species or system human", "protocol": "(§9) Cell culture: SP2/0, SP2/0-HER3, SP2/0-HER2, SP2/O-EGFR, NCI-N87, MDA-MB-468, MDA-MB-453, 7901, HT29, MCF-7, and SK-BR-3 used in the study were purchased from ATCC and cultured using the appropriate media recommended by ATCC. SP2/0-EGFR, SP2/0-HER2, and SP2/0HER3 cells stably expressing human EGFR, HER2 and HER3 were generated in house.\nas §1, with “5×10^6” for “5×10⁶”\nas §2"}, "[14]": {"target": "T7, SP2/0-HER3 cells (Homo sapiens, UniProt P21860)", "T7 construct": "expressed in transfected cells; host or cells: SP2/0 (mouse myeloma) stably expressing human HER3", "assay": "FACS binding of murine 3F8 to SP2/0 cells overexpressing HER3", "conditions": "PE-anti-mouse secondary antibody", "protocol": "as §9\nas §1, with “5×10^6” for “5×10⁶”\nas §2"}, "[15]": {"system": "BT474 subcutaneous xenograft model", "assay": "Tumor growth in BT474 subcutaneous xenograft model", "assay_type": "in vivo, mouse", "conditions": "25 mg/kg intravenously once every two weeks for three weeks; one-way analysis of variance p<0.05", "protocol": "In vivo efficacy study: the animals were maintained and used according to the IACUC guidelines. BALC/b nude mice and NPG mice, purchased from Charles River and SPF Biotech, respectively, were housed at 25° C. in a 12-h dark/light cycle with free access to food and drink. A patient-derived xenograft (PDX) model was generated by subcutaneous implantation of cryopreserved tissue fragments. Animals were initiated with drug treat when the tumor size reached 100-200 mm^3 and were euthanized when the tumor size was 1000 mm^3. The health condition was monitored daily. Tumor size and body weight were monitored and recorded every 3 days.\nThe anti-HER3 antibody was effective in inhibiting tumor growth in the BT474 subcutaneous xenograft model. The anti-HER3 antibody 3F8, 3D4, or 3F8+3D4 combination was injected intravenously at 25 mg/kg once every two weeks for three weeks. Tumor size was monitored every 3-4 days. Both 3F8 and 3D4 are anti-HER3 antibodies. 3F8 is a murine antibody."}, "[16]": {"target": "T8, human HER2 (Homo sapiens, UniProt P04626)", "T8 construct": "human HER2-ex-huFc; human Fc (huFc)", "assay": "ELISA binding to human HER2", "protocol": "as §6, §4, §5"}, "[17]": {"system": "NRG1-induced HER3 phosphorylation", "assay": "NRG1-induced HER3 phosphorylation, western blot in NCI-N87, MDA-MB-468 and MDA-MB-453", "assay_type": "cell-based", "protocol": "Western blot assay: the protein separated by SDS-PAGE was transferred to a nitrocellulose membrane for Western blot. The primary antibodies used were as follows: anti-HER2 (cell signaling, Catl #: 2165S), anti-HER3 (cell signaling, Catl #: 12708), anti-p-HER3 (cell signaling, Catl #: 4791), and anti-β-actin (cell signal transduction, Catl #: 4967).\nHER3 phosphorylation induced by NRG1: the cells were cultured in a 6-well plate and used for an experiment when the confluency reached 80%. On the day of the experiment, the cells were washed twice with PBS, incubated for 6 h in a serum-free medium, and then induced overnight with 10 μg/mL of the antibody. To induce HER3 phosphorylation, NRG1 was added to a working concentration of 100 ng/mL 30 min before the cells were collected for Western blot.\nMurine 3F8 blocked NRG1-induced HER3 phosphorylation. NCI-N87, MDA-MB-468 and MDA-MB-453 were treated with NRG1, the HER3 ligand, to induce downstream phosphorylation of HER3.\nThe effect of murine 3F8 in inhibiting NRG1-induced p-HER3 was determined by western blot."}, "[18]": {"target": "mouse HER3 (Mus musculus, UniProt Q61526)", "sequence (Q61526 20-1339)": "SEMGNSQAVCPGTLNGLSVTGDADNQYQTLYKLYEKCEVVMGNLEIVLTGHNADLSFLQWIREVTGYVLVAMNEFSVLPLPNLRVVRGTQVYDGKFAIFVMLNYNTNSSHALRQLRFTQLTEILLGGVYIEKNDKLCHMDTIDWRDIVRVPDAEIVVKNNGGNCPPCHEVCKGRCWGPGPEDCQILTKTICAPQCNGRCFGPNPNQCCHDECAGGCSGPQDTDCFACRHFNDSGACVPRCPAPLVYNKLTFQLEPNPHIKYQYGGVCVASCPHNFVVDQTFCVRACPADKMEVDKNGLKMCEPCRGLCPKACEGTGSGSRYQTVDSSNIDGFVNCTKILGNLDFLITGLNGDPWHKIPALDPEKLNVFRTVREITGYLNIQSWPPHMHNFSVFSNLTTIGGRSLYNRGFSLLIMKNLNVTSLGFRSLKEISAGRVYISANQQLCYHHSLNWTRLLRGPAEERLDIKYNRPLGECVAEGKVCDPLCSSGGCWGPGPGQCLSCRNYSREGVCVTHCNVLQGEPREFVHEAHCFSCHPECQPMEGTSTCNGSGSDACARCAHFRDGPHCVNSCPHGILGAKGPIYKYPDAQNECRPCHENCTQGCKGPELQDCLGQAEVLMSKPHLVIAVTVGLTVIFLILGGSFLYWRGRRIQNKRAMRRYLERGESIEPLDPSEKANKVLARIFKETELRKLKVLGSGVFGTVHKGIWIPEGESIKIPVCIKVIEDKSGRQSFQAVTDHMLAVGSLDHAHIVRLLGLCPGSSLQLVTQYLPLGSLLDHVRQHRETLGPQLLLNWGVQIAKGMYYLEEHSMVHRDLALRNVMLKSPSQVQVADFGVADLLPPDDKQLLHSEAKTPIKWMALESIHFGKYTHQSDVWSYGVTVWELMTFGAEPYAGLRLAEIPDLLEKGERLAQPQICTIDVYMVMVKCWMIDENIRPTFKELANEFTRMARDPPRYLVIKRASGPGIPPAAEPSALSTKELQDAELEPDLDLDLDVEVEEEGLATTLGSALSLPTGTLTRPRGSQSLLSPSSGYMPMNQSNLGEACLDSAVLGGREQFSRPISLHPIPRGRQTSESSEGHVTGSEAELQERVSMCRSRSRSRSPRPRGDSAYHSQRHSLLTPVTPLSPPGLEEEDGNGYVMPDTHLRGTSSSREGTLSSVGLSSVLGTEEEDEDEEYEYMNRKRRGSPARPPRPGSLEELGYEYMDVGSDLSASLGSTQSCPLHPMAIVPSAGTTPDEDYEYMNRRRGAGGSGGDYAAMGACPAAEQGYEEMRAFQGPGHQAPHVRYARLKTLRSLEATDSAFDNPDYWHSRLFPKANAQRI", "assay": "ELISA binding to mouse HER3", "protocol": "as §6, §7, §8"}, "[19]": {"target": "T9, human EGFR (Homo sapiens, UniProt P00533)", "T9 construct": "His", "assay": "ELISA binding to human EGFR", "protocol": "as §6, §4, §5"}, "[20]": {"target": "rat HER3 (Rattus norvegicus, UniProt Q62799)", "sequence (Q62799 20-1339)": "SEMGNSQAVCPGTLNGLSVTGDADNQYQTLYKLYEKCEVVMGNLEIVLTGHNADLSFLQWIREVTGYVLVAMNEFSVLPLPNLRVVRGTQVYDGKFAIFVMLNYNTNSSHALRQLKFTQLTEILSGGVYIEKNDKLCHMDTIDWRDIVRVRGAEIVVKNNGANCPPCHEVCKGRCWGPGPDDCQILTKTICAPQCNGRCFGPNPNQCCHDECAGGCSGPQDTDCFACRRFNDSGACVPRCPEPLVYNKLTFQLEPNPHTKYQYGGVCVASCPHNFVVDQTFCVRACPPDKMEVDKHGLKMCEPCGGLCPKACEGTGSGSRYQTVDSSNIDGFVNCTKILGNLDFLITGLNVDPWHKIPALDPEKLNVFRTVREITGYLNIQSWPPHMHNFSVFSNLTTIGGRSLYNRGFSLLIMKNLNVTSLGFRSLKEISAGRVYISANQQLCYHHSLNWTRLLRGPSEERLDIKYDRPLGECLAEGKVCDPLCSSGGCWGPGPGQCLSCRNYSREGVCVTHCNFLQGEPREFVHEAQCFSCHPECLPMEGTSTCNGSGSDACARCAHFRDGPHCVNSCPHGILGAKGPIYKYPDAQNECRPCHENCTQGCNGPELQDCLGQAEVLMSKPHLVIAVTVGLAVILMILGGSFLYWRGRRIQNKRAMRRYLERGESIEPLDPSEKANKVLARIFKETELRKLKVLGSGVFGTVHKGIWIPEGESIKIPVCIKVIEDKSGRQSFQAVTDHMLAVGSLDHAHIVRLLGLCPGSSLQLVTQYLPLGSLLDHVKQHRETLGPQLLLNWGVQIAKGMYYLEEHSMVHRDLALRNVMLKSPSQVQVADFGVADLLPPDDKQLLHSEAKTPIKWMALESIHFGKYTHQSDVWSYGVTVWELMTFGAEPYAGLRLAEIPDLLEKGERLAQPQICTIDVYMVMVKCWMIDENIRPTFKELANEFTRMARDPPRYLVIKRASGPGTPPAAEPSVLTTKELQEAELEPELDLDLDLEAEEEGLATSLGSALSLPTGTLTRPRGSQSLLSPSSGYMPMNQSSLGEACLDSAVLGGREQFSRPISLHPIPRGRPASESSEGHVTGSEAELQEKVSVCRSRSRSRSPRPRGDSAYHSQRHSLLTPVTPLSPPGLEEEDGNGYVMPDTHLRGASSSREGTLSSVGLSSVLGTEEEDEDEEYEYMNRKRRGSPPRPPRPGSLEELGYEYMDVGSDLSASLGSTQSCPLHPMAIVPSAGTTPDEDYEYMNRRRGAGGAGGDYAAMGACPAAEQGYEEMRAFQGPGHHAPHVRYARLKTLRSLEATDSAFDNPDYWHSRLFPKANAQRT", "assay": "ELISA binding to rat HER3", "protocol": "as §6, §7, §8"}}, "note": "Several values for one entry are separate records, joined by “and”; a condition that tells them apart may be missing. Identical values can stand only once."}
{"molecule": "murine 3F8 antibody (antibody, V domains shown, Mouse hybridoma antibody, made by hybridoma or recombinantly; also called m3F8) VH: DVQLQESGPGLVKPSQSLSLTCSVTGYSITSAYYWNWIRQFPGDKLEWMGYISYDGRNNFNPSLKNRISITRDTSKNQFFLKLNSVTSGDTATYYCARDGDYDYFDYWGQGTTLTVSS VL: DIQMTQTTSSLSASLGDRVTISCRASQDISNYLNWYQQKPDGTFKLLIYYTSILHSGVPSRFSGSGSGTDYSLTISNLEQEDIATYFCQQGDTLPPTFGAGTKLELK", "values": [{"measurement": "binding result", "setting": "[1]", "result": "no binding (tested: about 10^1.2 nM (about 15 nM))"}, {"measurement": "binding result", "setting": "[2]", "result": "no binding (tested: about 10^1.2 nM (about 15 nM))"}, {"measurement": "binding result", "setting": "[3]", "result": "no binding"}, {"measurement": "binding result", "setting": "[4]", "result": "no binding"}, {"measurement": "binding result", "setting": "[5]", "result": "no binding (tested: about 10^1.2 nM (about 16 nM))"}, {"measurement": "binding result", "setting": "[6]", "result": "no binding (tested: about 10^1.2 nM (about 16 nM))"}, {"measurement": "EC50", "setting": "[7]", "result": "0.11 nM and 0.0165 µg/mL"}, {"measurement": "EC50", "setting": "[8]", "result": "0.164 nM and 0.0245 µg/mL"}, {"measurement": "EC50", "setting": "[9]", "result": "0.185 nM and 0.0278 µg/mL"}]}
{"molecule": "murine 3F8: murine anti-HER3 antibody 3F8 from hybridoma; VL SEQ ID NO: 15, VH SEQ ID NO: 16 (antibody, V domains shown) VH: DVQLQESGPGLVKPSQSLSLTCSVTGYSITSAYYWNWIRQFPGDKLEWMGYISYDGRNNFNPSLKNRISITRDTSKNQFFLKLNSVTSGDTATYYCARDGDYDYFDYWGQGTTLTVSS VL: DIQMTQTTSSLSASLGDRVTISCRASQDISNYLNWYQQKPDGTFKLLIYYTSILHSGVPSRFSGSGSGTDYSLTISNLEQEDIATYFCQQGDTLPPTFGAGTKLELK", "values": [{"measurement": "recognition of human HER3", "setting": "[10]; ELISA", "result": "only recognized HER3"}, {"measurement": "EC50 (ng/mL) huHER3", "setting": "[10]; Table 1", "result": 16.50, "unit": "ng/mL"}, {"measurement": "HillSlope huHER3", "setting": "[10]; Table 1", "result": 1.04}, {"measurement": "EC50 (ng/mL) Human HER3", "setting": "[10]; Table 2", "result": 24.525, "unit": "ng/mL"}, {"measurement": "HillSlope Human HER3", "setting": "[10]; Table 2", "result": 1.015}, {"measurement": "time within which most was taken up", "setting": "[11]; 37° C.", "result": "≤ 1", "unit": "h"}, {"measurement": "internalization into the cell", "setting": "[11]; 37° C. for 1 or 4 h vs ice control", "result": "rapidly internalized"}, {"measurement": "EC50 (ng/mL) Cynomolgus monkey HER3", "setting": "[12]", "result": 27.825, "unit": "ng/mL"}, {"measurement": "binding to other cells", "setting": "[13]", "result": "did not bind"}, {"measurement": "binding to SP2/0-HER3 cells", "setting": "[14]", "result": "specifically bound"}, {"measurement": "tumor growth", "setting": "[15]", "result": "significantly inhibited the tumor growth"}, {"measurement": "recognition of human HER2", "setting": "[16]", "result": "did not recognize"}, {"measurement": "HER2 protein level", "setting": "[17]", "result": "no effect"}, {"measurement": "total HER3 protein level", "setting": "[17]", "result": "no effect"}, {"measurement": "phosphorylation level of HER3 protein", "setting": "[17]; NRG1 100 ng/mL, antibody 10 μg/mL", "result": "reduced the phosphorylation level"}, {"measurement": "recognition of mouse HER3", "setting": "[18]", "result": "did not recognize"}, {"measurement": "recognition of human EGFR", "setting": "[19]", "result": "did not recognize"}, {"measurement": "recognition of rat HER3", "setting": "[20]", "result": "did not recognize"}]}
